{"source": "paper PMC3491057", "about": "“Proliferating Cell Nuclear Antigen (PCNA) Interactions in Solution Studied by NMR” (PLoS ONE, 2012)", "molecules": {"B1": {"name": "MCL-1: Myeloid cell leukemia 1 protein, literature interaction with PCNA (protein)", "chain": "NNTSTDGSLPSTPPPAEEEEDELYRQSLEIISRYLREQATGAKDTKPMGRSGATSRKALETLRRVGDGVQRNHETAFQGMLRKLDIKNEDDVKSLSRVMIHVFSDGVTNWGRIVTLISFGAFVAKHLKTINQESCIEPLAESITDVLVRTKRDWLVKQRGWDGFVEFFHVEDLEGGIRNVLLAFAGVAGVGA", "modifications": "left off: His tag, N-terminal, kept"}, "B2": {"name": "ΔN151−ΔC7: MCL-1 residues 152–343 plus an N-terminal histidine-tag (protein)", "chain": "B1 chain", "modifications": "left off: His tag, N-terminal, kept"}, "B3": {"name": "Gadd45α: Growth arrest and DNA damage 45 alpha protein (protein, UniProt P24522 1-165, looked up)", "Growth arrest and DNA …": "MTLEEFSAGEQKTERMDKVGDALEEVLSKALSQRTITVGVYEAAKLLNVDPDNVVLCLLAADEDDDRDVALQIHFTLIQAFCCENDINILRVSNPGRLAELLLLETDAGPAASEGAEQPPDLHCVLVTNPHSSQWKDPALSQLICFCRESRYMDQWVPVINLPER"}}, "key": {"[1]": {"tested_on": "PCNA C-terminal fragment 137–261", "conditions": "yeast two-hybrid; cited from earlier work", "from_the_text": "MCL-1 has a sequence that meets this minimal PIP-box motif (^221 […] ^228) at the end of the BH3 region in its globular C-terminal domain."}, "[2]": {"tested_on": "PCNA", "conditions": "co-immunoprecipitation, lysates from co-transfected human embryonic cells and native HeLa cells; cited from earlier work", "from_the_text": "MCL-1 is a member of the pro-survival B-cell lymphoma-leukemia-2 (Bcl-2) family that preserves mitochondrial integrity during apoptosis. It consists of an intrinsically disordered, 170 residue long N-terminal region and a C-terminal globular domain with three Bcl-2 homology (BH) regions. […] MCL-1 has a sequence that meets this minimal PIP-box motif (^221 […] ^228) at the end of the BH3 region in its globular C-terminal domain."}, "[3]": {"target": "T1, human PCNA (Homo sapiens, UniProt P12004)", "T1 construct": "His6 tag with PreScission protease cleavage site (N, cleaved yes); made in house; host or cells: E. coli", "T1 sequence (P12004 whole entry)": "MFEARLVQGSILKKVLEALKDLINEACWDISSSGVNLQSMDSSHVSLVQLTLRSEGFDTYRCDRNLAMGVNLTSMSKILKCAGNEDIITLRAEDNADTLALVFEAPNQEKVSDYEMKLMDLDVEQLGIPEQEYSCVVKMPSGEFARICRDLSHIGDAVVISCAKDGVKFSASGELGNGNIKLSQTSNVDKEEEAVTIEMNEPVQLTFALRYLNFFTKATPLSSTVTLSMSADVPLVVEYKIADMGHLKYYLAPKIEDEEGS", "assay": "NMR (TROSY) examination of the interaction of PCNA with MCL-1 construct", "type": "binding", "conditions": "35°C; for binding to PCNA (chemical shift or intensity changes): 50 µM 2H-15N PCNA, 220 µM MCL-1 construct (4.4 equivalents), 10 mM Tris pH 7.4, 250 mM NaCl, 1 mM EDTA, 0.5 mM DTT, 800 MHz", "protocol": "The human MCL-1 ΔN151−ΔC7 construct cloned in vector pET32a was expressed and purified as described. Briefly, the protein was expressed in E. coli BL21(DE3) cells with a histidine-tag and a Tev protease site at the N-terminus, and was purified by two chromatography steps: immobilized nickel ion affinity and size exclusion.\nUnless indicated otherwise, the NMR spectra were recorded on a Bruker AV600 spectrometer equipped with a cryogenically-cooled triple resonance z-gradient probe at 35°C on PCNA samples with or without ligands in PBS pH 7.0. The spectra in Figures S2, S4, S7 and S8 were recorded on a Bruker AV800 spectrometer with a cryogenically-cooled triple resonance z-gradient probe on samples and buffers described in the corresponding legends. TROSY-based 3D HNCO, HN(CA)CO, HNCACB, HN(CO)CACB, and HNCA [21] were recorded for resonance assignment. Spectra were processed with TopSpin (Bruker) or with NMRPipe and analyzed using NMRView. Peak intensities were evaluated by the peak heights measured using CCPNMR [24].\nWe have monitored the binding of MCL-1 to PCNA by NMR using an MCL-1 construct that lacks most of the disordered N-terminal region but retains the C-terminal domain correctly folded. […] As no significant CSPs were measured, it is not possible to confirm the interaction, but a lower limit for the dissociation constant of the putative complex can be estimated. Assuming an equimolar complex, and that we should be able to detect significant changes when at least 20% of PCNA is bound to MCL-1 [42], a lower limit of the dissociation constant can be calculated. […]\nSupplementary file pone.0048390.s007.tif: Figure S7 NMR examination of the interaction of PCNA with MCL-1. ^1H-^15N TROSY spectra of 50 µM uniformly labeled ^2H-^15N PCNA alone (black) or in the presence (red) of 220 µM of the ΔN151−ΔC7 fragment of human MCL-1 (1∶4.4 ratio on a PCNA monomer basis). The spectra were recorded in 10 mM Tris pH 7.4, 250 mM NaCl, 1 mM EDTA, 0.5 mM DTT at 800 MHz and 35°C. […]"}, "[4]": {"tested_on": "PCNA", "design": "method as in PMID 20460379", "conditions": "cited from earlier work"}}, "note": "Entries after “also recorded” stand apart in the source; their conditions may differ.", "data": [{"molecule": "B1", "values": [{"measurement": "interaction with PCNA fragment 137–261", "setting": "[1]", "value": "sufficient for the interaction with MCL-1"}, {"measurement": "interaction with PCNA", "setting": "[2]", "value": "interact with PCNA; also recorded: detected by co-immunoprecipitation"}]}, {"molecule": "B2", "values": [{"measurement": "binding to PCNA (chemical shift or intensity changes)", "setting": "[3]", "value": "did not observe any indication of binding"}, {"measurement": "binding to PCNA (chemical shift or intensity changes)", "setting": "[3]; listed as Bcl-2 domain of MCL-1", "value": "did not detect binding"}, {"measurement": "Kd", "setting": "[3]; assuming equimolar complex and detection at ≥20% PCNA bound, 50 µM PCNA, 220 µM MCL-1 construct, read-out: dissociation constant (lower limit)", "value": "> 840", "unit": "µM"}]}, {"molecule": "B3", "values": [{"measurement": "direct interaction with PCNA in solution", "setting": "[4]", "value": "extremely weak"}]}]}
